Reference: article PMC11149935, “SAFB regulates hippocampal stem cell fate by targeting Drosha to destabilize Nfib mRNA” (eLife, 2024)

Target: T1, Drosha (endogenous, N2A cells) (mouse (endogenous in N2A), UniProt Q5HZJ0 1-1373)
T1 construct: Drosha, endogenous protein of N2A neuroblastoma cells (ATCC CCL-131); source: endogenous, N2A lysate
T1 sequence (looked up): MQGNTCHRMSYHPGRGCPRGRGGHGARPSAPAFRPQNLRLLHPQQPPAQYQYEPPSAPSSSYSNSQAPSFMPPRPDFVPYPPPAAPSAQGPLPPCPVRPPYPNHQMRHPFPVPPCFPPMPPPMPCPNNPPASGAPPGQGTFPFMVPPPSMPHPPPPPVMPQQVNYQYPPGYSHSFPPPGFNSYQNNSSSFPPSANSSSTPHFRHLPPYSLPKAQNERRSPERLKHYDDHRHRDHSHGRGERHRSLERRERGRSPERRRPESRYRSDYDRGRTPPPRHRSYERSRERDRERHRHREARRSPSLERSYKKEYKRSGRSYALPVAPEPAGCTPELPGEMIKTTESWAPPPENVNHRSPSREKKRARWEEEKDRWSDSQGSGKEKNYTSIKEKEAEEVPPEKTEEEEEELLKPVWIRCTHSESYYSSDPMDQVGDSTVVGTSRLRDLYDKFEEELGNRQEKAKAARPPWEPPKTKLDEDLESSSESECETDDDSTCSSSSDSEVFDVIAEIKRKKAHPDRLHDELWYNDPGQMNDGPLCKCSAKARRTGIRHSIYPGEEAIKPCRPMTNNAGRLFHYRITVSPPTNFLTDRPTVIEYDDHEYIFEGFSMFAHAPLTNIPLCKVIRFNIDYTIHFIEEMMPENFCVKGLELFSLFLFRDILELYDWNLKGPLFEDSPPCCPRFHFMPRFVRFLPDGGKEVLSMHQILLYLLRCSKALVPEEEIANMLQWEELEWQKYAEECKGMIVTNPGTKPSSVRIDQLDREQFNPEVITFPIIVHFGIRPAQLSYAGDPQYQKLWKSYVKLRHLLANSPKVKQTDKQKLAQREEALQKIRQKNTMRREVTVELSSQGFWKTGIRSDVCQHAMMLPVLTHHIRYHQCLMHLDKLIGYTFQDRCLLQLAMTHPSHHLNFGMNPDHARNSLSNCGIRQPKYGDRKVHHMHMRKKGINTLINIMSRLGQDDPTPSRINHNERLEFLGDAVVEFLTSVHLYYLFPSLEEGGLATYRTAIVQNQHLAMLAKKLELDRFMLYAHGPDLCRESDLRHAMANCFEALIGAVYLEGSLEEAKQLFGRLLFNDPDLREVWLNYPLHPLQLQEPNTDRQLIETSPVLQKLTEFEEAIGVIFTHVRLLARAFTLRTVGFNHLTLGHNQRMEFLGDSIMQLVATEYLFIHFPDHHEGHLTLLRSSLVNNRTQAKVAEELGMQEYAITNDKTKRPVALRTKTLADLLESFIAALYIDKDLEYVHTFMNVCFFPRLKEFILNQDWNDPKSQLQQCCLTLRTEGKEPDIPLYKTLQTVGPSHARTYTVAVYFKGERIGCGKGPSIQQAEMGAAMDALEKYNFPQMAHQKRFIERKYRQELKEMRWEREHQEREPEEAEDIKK
Assay: co-IP; N2A cells transfected with SAFB-HA or SAFB-ΔRE-HA, 48 hr; IP of endogenous Drosha, anti-HA immunoblot, densitometry relative to Drosha; IgG isotype control IP
Details: partners not purified

B1: SAFB-ΔRE-HA (natural protein, UniProt Q15424 1-915, looked up)
chain: MAETLSGLGDSGAAGAAALSSASSETGTRRLSDLRVIDLRAELRKRNVDSSGNKSVLMERLKKAIEDEGGNPDEIEITSEGNKKTSKRSSKGRKPEEEGVEDNGLEENSGDGQEDVETSLENLQDIDIMDISVLDEAEIDNGSVADCVEDDDADNLQESLSDSRELVEGEMKELPEQLQEHAIEDKETINNLDTSSSDFTILQEIEEPSLEPENEKILDILGETCKSEPVKEESSELEQPFAQDTSSVGPDRKLAEEEDLFDSAHPEEGDLDLASESTAHAQSSKADSLLAVVKREPAEQPGDGERTDCEPVGLEPAVEQSSAASELAEASSEELAEAPTEAPSPEARDSKEDGRKFDFDACNEVPPAPKESSTSEGADQKMSSPEDDSDTKRLSKEEKGRSSCGRNFWVSGLSSTTRATDLKNLFSKYGKVVGAKVVTNARSPGARCYGFVTMSTAEEATKCINHLHKTELHGKMISVEKAKNEPVGKKTSDKRDSDGKKEKSSNSDRSTNLKRDDKCDRKDDAKKGDDGSGEKSKDQDDQKPGPSERSRAVRRPYDLDRRDDAYWPEAKRAALDERYHSDFNRQDRFHDFDHRDRGRYPDHSVDRREGSRSMMGEREGQHYPERHGGPERHGRDSRDGWGGYGSDKRMSEGRGLPPPPRRDWGDHGRREDDRSWQGTADGGMMDRDHKRWQGGERSMSGHSGPGHMMNRGGMSGRGSFAPGGASRGHPIPHGGMQGGFGGQSRGSRPSDARFTRRY
notes: SAFB lacking the RE-rich region (amino acids 552-708), made from CAG::Safb-HA-IRES-Cfp by Q5 site-directed mutagenesis; Parent is m26; Also expressed in DG NSCs for the reporter assay; also called CAG::Safb-ΔRE-HA-IRES-Cfp; source: N2A, transfected (TransFectin), in lysate
fold reduction in binding against SAFB WT: 5.7 fold
